Drawing on patent US20260028421A1 (JIANGSU HENGRUI PHARMACEUTICALS, published 2026), this text covers Kd, koff and kon for 18 molecules.

The chains are these.
B1: 81 L3H2 (antibody, human IgG1, kappa, V domains shown)
VH: EVQLVQSGAEVKKPGASVKVSCKASGYTFTDHNMNWVKQAPGQRLEWMGVMNPKFGTINYNQKFKDKATITRDTSASTAYMELSSLRSEDTAVYYCARDDYPNYFDYWGQGTTVTVSS
VL: DIQLTQSPSFLSASPGDRVTITCSASSSVNYMYWYQQKPGSSPKSWIYRTSNLASGVPSRFSGSGSGTEYTLTISSLQPEDFATYYCQQYHDYPPTFGGGTKVEIKR
notes: h81 H2 + h81 L3
B2: 81 L2H2 (antibody, human IgG1, kappa, V domains shown)
VH: EVQLVQSGAEVKKPGASVKVSCKASGYTFTDHNMNWVKQAPGQRLEWMGVMNPKFGTINYNQKFKDKATITRDTSASTAYMELSSLRSEDTAVYYCARDDYPNYFDYWGQGTTVTVSS
VL: EIVLTQSPDFQSVTPGEKVTITCSASSSVNYMYWYQQKPDQSPKSWIYRTSNLASGVPSRFSGSGSGTDFTLTISSLEAEDAATYYCQQYHDYPPTFGGGTKVEIKR
notes: h81 H2 + h81 L2
B3: 81 L6H2 (antibody, human IgG1, kappa, V domains shown)
VH: EVQLVQSGAEVKKPGASVKVSCKASGYTFTDHNMNWVKQAPGQRLEWMGVMNPKFGTINYNQKFKDKATITRDTSASTAYMELSSLRSEDTAVYYCARDDYPNYFDYWGQGTTVTVSS
VL: DIQLTQSPSFLSASPGDRVTITCSASSSVNYMYWYQQKPGSSPKSWIYRTQNLASGVPSRFSGSGSGTEYTLTISSLQPEDFATYYCQQYHDYPPTFGGGTKVEIKR
notes: h81 H2 + h81 L6
B4: 81 L4H2 (antibody, human IgG1, kappa, V domains shown)
VH: EVQLVQSGAEVKKPGASVKVSCKASGYTFTDHNMNWVKQAPGQRLEWMGVMNPKFGTINYNQKFKDKATITRDTSASTAYMELSSLRSEDTAVYYCARDDYPNYFDYWGQGTTVTVSS
VL: DIQLTQSPSFLSASPGDRVTITCSASSSVNYMYWYQQKPGSSPKSWIYRTSNDASGVPSRFSGSGSGTEYTLTISSLQPEDFATYYCQQYHDYPPTFGGGTKVEIKR
notes: h81 H2 + h81 L4
B5: P2-C8 CHI (antibody, human IgG1, kappa, V domains shown)
VH: EVQLQQSGPVLVKPGASVKMSCKVSGYTFTDYYMHWVKQSHGKSLEWIGLINPYNGVTSYNQKFKGKATLTVDKSSSTAYMELNSLTSEDSAVYYCARPPRAYGNYAGYWGQGTTLTVSS
VL: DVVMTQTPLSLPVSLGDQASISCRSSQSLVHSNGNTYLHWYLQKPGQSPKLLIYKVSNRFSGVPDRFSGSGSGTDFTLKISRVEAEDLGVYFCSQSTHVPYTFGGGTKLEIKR
notes: chimeric
B6: P3-D2 CHI (antibody, human IgG1, kappa, V domains shown)
VH: EVQLQQSGPVLVKPGASVKMSCKASGYTFTDYFMHWVKQSHGKSLEWIGLINPYSGGTTYNQKFKGKATLTVDKSSSTAYMELNSLTSEDSAVYYCARPPRAYGDYAGYWGQGTTLTVSS
VL: DVVMTQTPLSLPVSLGDQASISCRSSQSLVHSNGNTYLHWYLQKPGQSPKLLIYKVSNRFSGVPDRFSGSGSGTDFTLKISRVEAEDLGVYFCSQSTHVPLTFGTGTKLEIKR
notes: chimeric
B7: P3-E4 CHI (antibody, human IgG1, kappa, V domains shown)
VH: QVQLQQPGAELVMPGAAVKLSCKASGYTFINYWMHWLKQRPGQGLEWIGEIDPSDGYTDYNQKFKGKATLTVDKSSSTAYMQLSSLTSEDSAVYYCAISLRGPITFGPFPYWGQGTLVTVSS
VL: DIVLTQSPASLAVSLGQRATISCRASESVSIHGTHLMHWYQQKPGQPPKLLIYAASNLESGVPARFSGSGSETDFTLNIHPVAEEDAATYFCQHSIEDPRTFGGGTKLEIKR
notes: chimeric
B8: M81 CHI (antibody, human IgG1, kappa, V domains shown)
VH: EFQLQQSGPELVKPGASVKISCKASGYSFTDHNMNWVKQSNGKSLEWIGVMNPKFGTINYNQKFKDKATLTVDQSSSTAYMQLNSLTSEDSAVYYCVRDDYPNYFDYWGQGTTLTVSS
VL: QIVLTQSPAIMSASPGEKVTISCSASSSVNYMYWYQQKPGSSPKSWIYRTSNLASGVSARFSGSGSGTSYSLTISSMEAEDAATYYCQQYHDYPPTFGGGTKLEIKR
notes: chimeric, murine variable regions on human IgG1/kappa; also called M81CH1
B9: M146 CHI (antibody, human IgG1, kappa, V domains shown)
VH: EFQLQQSGPELVKPGASVKISCKASGYSFTDYNMNWVKQSNGKSLEWIGLINPKYGTTNYNQKFKGKATLTVDQSSSTAYMQLNSLTSEDSAVYYCAIDDYPAWFAYWGQGTLVTVSA
VL: QIVLTQSPAIMSASPGEKVTISCSASSSLNYMYWYQQKPGSSPKSWIYRTSNLASGVPARFSGSGSGTSYSLTISSMEAEDAATYYCQQYHSYPPTFGAGTKLELKR
notes: chimeric
B10: P3-C7 L2H1 (antibody, human IgG1, kappa, V domains shown)
VH: EVQLVQSGAEVKKPGASVKVSCKASGYTFTDHYIHWVRQAPGQGLEWMGVINPYNDGATYNQKFKGRVTMTVDKSTSTVYMELSSLRSEDTAVYYCARPPRAYGNYAGYWGQGTTVTVSS
VL: DVVMTQTPLSLPVTPGEPASISCRSSQSLVHSNGNTYLHWYLQKPGQSPQLLIYKVSNRFSGVPDRFSGSGSRTDFTLKISRVEAEDVGVYYCSQSTHVPYTFGGGTKVEIKR
notes: hP3-C7 H1 + L2
B11: P3-C7 CHI (antibody, human IgG1, kappa, V domains shown)
VH: EVQLQQSGPVLLKPGASVKMSCKASGYTFTDHYIHWVKLSHGKSLEWIGVINPYNDGATYNQKFKGKATLTVDKSSSTAYMELNSLTSEDSAVYYCARPPRAYGNYAGYWGQGTTLTVSS
VL: DVVMTQTPLSLPVSLGDQASISCRSSQSLVHSNGNTYLHWYLQKPGQSPKLLIYKVSNRFSGVPDRFIGSGSRTDFTLKISRVEAEDLGVYFCSQSTHVPYTFGGGTRLEIKR
notes: chimeric; also called P3-C7 CH1
B12: P3-C7 L3H1 (antibody, human IgG1, kappa, V domains shown)
VH: EVQLVQSGAEVKKPGASVKVSCKASGYTFTDHYIHWVRQAPGQGLEWMGVINPYNDGATYNQKFKGRVTMTVDKSTSTVYMELSSLRSEDTAVYYCARPPRAYGNYAGYWGQGTTVTVSS
VL: DVVMTQTPLSLPVTPGEPASISCRSSQSLVHSQGNTYLHWYLQKPGQSPQLLIYKVSNRFSGVPDRFSGSGSRTDFTLKISRVEAEDVGVYYCSQSTHVPYTFGGGTKVEIKR
notes: hP3-C7 H1 + L3
B13: P3-C7 L4H1 (antibody, human IgG1, kappa, V domains shown)
VH: EVQLVQSGAEVKKPGASVKVSCKASGYTFTDHYIHWVRQAPGQGLEWMGVINPYNDGATYNQKFKGRVTMTVDKSTSTVYMELSSLRSEDTAVYYCARPPRAYGNYAGYWGQGTTVTVSS
VL: DVVMTQTPLSLPVTPGEPASISCRSSQSLVHSSGNTYLHWYLQKPGQSPQLLIYKVSNRFSGVPDRFSGSGSRTDFTLKISRVEAEDVGVYYCSQSTHVPYTFGGGTKVEIKR
notes: hP3-C7 H1 + L4
B14: P3-C7 L1H1 (antibody, human IgG1, kappa, V domains shown)
VH: EVQLVQSGAEVKKPGASVKVSCKASGYTFTDHYIHWVRQAPGQGLEWMGVINPYNDGATYNQKFKGRVTMTVDKSTSTVYMELSSLRSEDTAVYYCARPPRAYGNYAGYWGQGTTVTVSS
VL: DIVMTQTPLSLPVTPGEPASISCRSSQSLVHSNGNTYLHWYLQKPGQSPQLLIYKVSNRFSGVPDRFSGSGSGTDFTLKISRVEAEDVGVYYCSQSTHVPYTFGGGTKVEIKR
notes: hP3-C7 H1 + L1
B15: P3-C7 L5H1 (antibody, human IgG1, kappa, V domains shown)
VH: EVQLVQSGAEVKKPGASVKVSCKASGYTFTDHYIHWVRQAPGQGLEWMGVINPYNDGATYNQKFKGRVTMTVDKSTSTVYMELSSLRSEDTAVYYCARPPRAYGNYAGYWGQGTTVTVSS
VL: DVVMTQTPLSLPVTPGEPASISCRSSQSLVHSTGNTYLHWYLQKPGQSPQLLIYKVSNRFSGVPDRFSGSGSRTDFTLKISRVEAEDVGVYYCSQSTHVPYTFGGGTKVEIKR
notes: hP3-C7 H1 + L5
B16: P1-C6 CHI (antibody, human IgG1, kappa, V domains shown)
VH: QVQLQQSGAELARPGASVKLSCKASGYTFTSYGITWVKRRTGQGLGWIGEIYPRSGNTYYNEKFKGKATLTADKSSSTAYMELRSLTSEDSAVYFCARAITTVVGDWYFDVWGTGTTVTVSS
VL: DIVLTQSPASLAMSLGKRATISCRASESVSLIGTNLIHWYQQKPGQPPKLLIHHASNLEAGVPARFSGSGSRTDFTLTIDPVEEDDVAIYYCLQSRKIRTFGGGTKLEIKR
notes: chimeric
B17: P2-B9 CHI (antibody, human IgG1, kappa, V domains shown)
VH: QVQLQQPGAELVKPGASVKLSCKASGYTFSSYWMHWVKQRPGQGLEWIGMIHPKSDSVNNNEKFKNKATLTVDKSSSTVYLQLSSLTSEDSAVYSCARGGDSGYSMDYWGQGTSVTVSS
VL: DIVLTQSPASLAVSLGQKATISCKASKKVTIFGSISALHWYQQKPGQPPKLIYNGAKLESGVSARFSDSGSQNRSPFGNQLSFTLTIDPVEADDAATYYCLQNKEVPYTFGGGTKLEIKR
notes: chimeric
B18: M64 CHI (antibody, human IgG1, kappa, V domains shown)
VH: EVQLVESGGGLVKPGGSLKLSCAASGFTFSDYGMHWVRQAPEKGLEWVAYISSGSSTIYYADTVKGRFTISRDNAKNTLFLQMTSLRSEDTAMYYCARTRVYFYGSYWYFDVWGTGTTVTVSS
VL: QIVLTQSPAIMSASPGEKVTMTCSASSSVSYMYWYQQKSGTSPKRWIYDTSKLASGVPARFSGSGSGTSYSLTISSLEAEDAATYYCQQWSSDPPYTFGGGTKLEIKR
notes: chimeric

The term Kd denotes the concentration at which binding is half-saturated. Read a low Kd as higher affinity. In general, koff refers to the first-order rate constant of dissociation. High values mean a short-lived complex, low ones a long-lived complex. As a reminder, the kon is the second-order rate constant of association. Read a low kon as slow association.

The target of the assay is T1, hGUCY2C ECD-His (human, UniProt P25092 24-430).
T1 construct: also called human GUCY2C protein
The experiment in a line: SPR Biacore, antibody captured. The text has this:
To test the affinity of the GUCY2C monoclonal antibodies of the present disclosure for GUCY2C, in this test example, the instruments Biacore 8K and Biacore T200 were used to detect the ability of the antibodies to bind to hGUCY2C-ECD-His (SEQ ID NO: 3). The specific method is as follows: The antibody was affinity-captured using a Protein A biosensor chip conjugated with an anti-human antibody, then a solution containing GUCY2C Protein flowed on the surface of the chip, and reaction signals were detected in real time with an instrument to obtain association and dissociation curves. After dissociation was completed for each cycle, the biosensor chip was washed with 10 mM glycine-hydrochloric acid (pH 1.5) for regeneration. Data fitting was performed using a 1:1 model.
(SPR reads the build-up and loss of mass on a sensor chip optically.)
For the molecule B1, binding was characterised by a dissociation constant (Kd) of 0.41 nM, the koff was 0.000103 s⁻¹ and the kon worked out at 251000 M⁻¹ s⁻¹.
The like results for B2 were, in that order, 0.46 nM, 0.000127 s⁻¹ and 274000 M⁻¹ s⁻¹.
The like results for B3 were, in that order, 0.47 nM, 0.000114 s⁻¹ and 241000 M⁻¹ s⁻¹.
The like results for B4 were, in that order, 0.98 nM, 0.000207 s⁻¹ and 212000 M⁻¹ s⁻¹.
With B5, the equilibrium dissociation constant (Kd) is 5.12 nM, the koff was determined as 0.000178 s⁻¹ and the kon is 34900 M⁻¹ s⁻¹.
Taken in the same sequence, the figures for B6 were 4.5 nM, 0.000173 s⁻¹ and 38600 M⁻¹ s⁻¹.
On to B7, for which the Kd turned out to be 12.9 nM, the koff was determined as 0.000228 s⁻¹ and the kon worked out at 17700 M⁻¹ s⁻¹.
The like results for B8 were, in that order, 0.27 nM, 5.9e-05 s⁻¹ and 216000 M⁻¹ s⁻¹.
B9 registered a Kd of 0.46 nM, a dissociation rate constant (koff) of 9.22e-05 s⁻¹ and an on-rate constant (kon) of 203000 M⁻¹ s⁻¹.
Molecule B10 came in with a Kd of 5.35 nM, a dissociation rate constant (koff) of 0.000166 s⁻¹ and a kon of 31000 M⁻¹ s⁻¹.
Taken in the same sequence, the figures for B11 were 6.61 nM, 0.000149 s⁻¹ and 22600 M⁻¹ s⁻¹.
The like results for B12 were, in that order, 47.5 nM, 0.00135 s⁻¹ and 28400 M⁻¹ s⁻¹.
For the molecule B13, binding was put at a Kd of 73.4 nM, the koff came out at 0.00209 s⁻¹ and the kon amounted to 28500 M⁻¹ s⁻¹.
Taken in the same sequence, the figures for B14 were 6.55 nM, 0.000156 s⁻¹ and 23700 M⁻¹ s⁻¹.
Taken in the same sequence, the figures for B15 were 26.7 nM, 0.000719 s⁻¹ and 26900 M⁻¹ s⁻¹.
The like results for B16 were, in that order, 2.57 nM, 0.000181 s⁻¹ and 70700 M⁻¹ s⁻¹.
Molecule B17 came in with a dissociation constant (Kd) of 3.02 nM, a koff of 0.000175 s⁻¹ and an on-rate (kon) of 58100 M⁻¹ s⁻¹.
Taken in the same sequence, the figures for B18 were 20.4 nM, 0.000348 s⁻¹ and 17100 M⁻¹ s⁻¹.
